Reference: publication doi:10.1101/2020.03.05.978833
pKd: −log10 of the molar value.

Test system: FasR wild-type (His6, EMSA) (Mycobacterium tuberculosis H37Rv)
Assay: EMSA

Q: PfasMT promoter fragment (398 bp) was tested. Which pKd did it give?
A: 7.08
